Assay results published in patent US20240116985A1, “STAPLED PEPTIDES AND METHODS THEREOF” (priority 2020, published 2024).
One block for each binder: values may come before it. Starred links: 1 amine or outer side, 2 acyl side, 3 side chain; linkers in the order of their positions; H or OH if unused. Positions of bridges follow the written chain, without caps; N, C: chain ends. Non-standard residues stand in square brackets, D forms with d. Primed or numbered codes have the meaning given here. No end group written: not given here. PyrS2″ = (S)-3-amino-1-((pent-4-en-1-yloxy)carbonyl)pyrrolidine-3-carboxylic acid (stapling residue), C=CCCCOC(=O)N1CC[C@@](N[*:1])(C(=O)[*:2])C1; B5(4) = 2,2-bis(4-pentenyl)glycine = 2-amino-2-(pent-4-en-1-yl)hept-6-enoic acid (stitching residue), C=CCCCC(CCCC=C)(N[*:1])C(=O)[*:2]; B5(5) = 2,2-bis(4-pentenyl)glycine, 2-amino-2-(pent-4-en-1-yl)hept-6-enoic acid (stitching residue), C=CCCCC(CCCC=C)(N[*:1])C(=O)[*:2]; TfeGA = (S)-2-amino-3-((carboxymethyl)(2,2,2-trifluoroethyl)amino)propanoic acid, O=C([C@H](CN(CC(=O)[*:3])CC(F)(F)F)N[*:1])[*:2]; PyrS2 = (S)-3-amino-1-((pent-4-en-1-yloxy)carbonyl)pyrrolidine-3-carboxylic acid, C=CCCCOC(=O)N1CC[C@@](N[*:1])(C(=O)[*:2])C1; PyrS3 = (S)-3-amino-1-((hex-5-en-1-yloxy)carbonyl)pyrrolidine-3-carboxylic acid, C=CCCCCOC(=O)N1CC[C@@](N[*:1])(C(=O)[*:2])C1; Az2 = 3-amino-1-((pent-4-en-1-yloxy)carbonyl)azetidine-3-carboxylic acid, C=CCCCOC(=O)N1CC(N[*:1])(C(=O)[*:2])C1; Az3 = 3-amino-1-((hex-5-en-1-yloxy)carbonyl)azetidine-3-carboxylic acid, C=CCCCCOC(=O)N1CC(N[*:1])(C(=O)[*:2])C1; B5(12) = 2-amino-2-(pent-4-en-1-yl)hept-6-enoic acid (two olefin side chains), C=CCCCC(CCCC=C)(N[*:1])C(=O)[*:2]; B5(7) = 2-amino-2-(pent-4-en-1-yl)hept-6-enoic acid, two olefinic side chains, C=CCCCC(CCCC=C)(N[*:1])C(=O)[*:2]; B5(13) = 2-amino-2-(pent-4-en-1-yl)hept-6-enoic acid (two alkene chains), C=CCCCC(CCCC=C)(N[*:1])C(=O)[*:2]; B5(3) = 2,2-bis(4-pentenyl)glycine (stitching residue), C=CCCCC(CCCC=C)(N[*:1])C(=O)[*:2]; B5 = 2-amino-2-(pent-4-en-1-yl)hept-6-enoic acid, C=CCCCC(CCCC=C)(N[*:1])C(=O)[*:2]; Phe(3-COOH) = N[C@@H](Cc1cccc(C(=O)O)c1)C(=O)O; Phe(2-Cl) = N[C@@H](Cc1ccccc1Cl)C(=O)O; Bta = N[C@@H](Cc1csc2ccccc12)C(=O)O; αAllylPro = C=CC[C@@]1(C(=O)O)CCCN1; tBuAla = CC(C)(C)C[C@H](N)C(=O)O; 3Thi = N[C@@H](Cc1ccsc1)C(=O)O; S8 = C=CCCCCCC[C@](C)(N)C(=O)O; hSer = N[C@@H](CCO)C(=O)O; Abu = CC[C@H](N)C(=O)O; Aib = CC(C)(N)C(=O)O

Experiments:
[1] = biological target: full-length beta-Catenin (Uniprot ID P35222) (Homo sapiens (Human)) (UniProt P35222); assay: fluorescence polarization competition; 10 nM full-length beta-catenin with 10 nM 5FAM-labeled TCF4 residues 10-53 probe, peptide titrated
Target sequence in this assay (P35222 whole entry, the tested form may be a part, one chain of several): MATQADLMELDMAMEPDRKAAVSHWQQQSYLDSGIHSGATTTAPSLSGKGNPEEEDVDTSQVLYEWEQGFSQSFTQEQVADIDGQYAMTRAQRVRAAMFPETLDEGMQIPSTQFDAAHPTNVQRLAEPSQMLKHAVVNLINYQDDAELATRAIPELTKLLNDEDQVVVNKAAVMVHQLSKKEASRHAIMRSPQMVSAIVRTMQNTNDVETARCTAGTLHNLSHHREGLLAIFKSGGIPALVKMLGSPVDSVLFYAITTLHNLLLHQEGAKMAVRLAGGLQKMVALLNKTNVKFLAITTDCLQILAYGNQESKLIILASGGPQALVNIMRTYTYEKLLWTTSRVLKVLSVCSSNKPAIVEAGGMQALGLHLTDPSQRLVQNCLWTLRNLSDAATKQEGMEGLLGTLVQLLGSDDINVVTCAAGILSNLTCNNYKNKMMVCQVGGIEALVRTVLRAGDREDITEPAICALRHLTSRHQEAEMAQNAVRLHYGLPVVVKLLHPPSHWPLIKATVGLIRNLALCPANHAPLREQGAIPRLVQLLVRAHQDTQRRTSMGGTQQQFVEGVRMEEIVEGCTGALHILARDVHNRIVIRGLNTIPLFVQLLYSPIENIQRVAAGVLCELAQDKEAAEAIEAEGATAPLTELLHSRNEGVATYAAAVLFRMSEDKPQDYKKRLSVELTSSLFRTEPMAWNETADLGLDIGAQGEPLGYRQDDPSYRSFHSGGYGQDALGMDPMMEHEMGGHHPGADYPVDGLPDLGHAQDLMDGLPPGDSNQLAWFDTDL

Bcat-Halo [2] = biological target: Bcat-Halo (UniProt P35222); assay: NanoBRET in HEK293 cells, Bcat-Halo/TCF4-Luc (competitor TCF4-Luc); percent inhibition at 10 uM peptide
[3] = biological target: full-length beta-Catenin (Uniprot ID P35222) (Homo sapiens (Human)) (UniProt P35222); assay: fluorescence polarization competition; full-length beta-catenin, competitor 5FAM-TCF4(10-53) probe
[4] = biological target: full-length beta-Catenin (Uniprot ID P35222) (Homo sapiens (Human)) (UniProt P35222); assay: fluorescence polarization competition; peptide displaces 5FAM-TCF4(10-53) from full-length beta-catenin
Target sequence in this assay (P35222 2-781 limits assumed): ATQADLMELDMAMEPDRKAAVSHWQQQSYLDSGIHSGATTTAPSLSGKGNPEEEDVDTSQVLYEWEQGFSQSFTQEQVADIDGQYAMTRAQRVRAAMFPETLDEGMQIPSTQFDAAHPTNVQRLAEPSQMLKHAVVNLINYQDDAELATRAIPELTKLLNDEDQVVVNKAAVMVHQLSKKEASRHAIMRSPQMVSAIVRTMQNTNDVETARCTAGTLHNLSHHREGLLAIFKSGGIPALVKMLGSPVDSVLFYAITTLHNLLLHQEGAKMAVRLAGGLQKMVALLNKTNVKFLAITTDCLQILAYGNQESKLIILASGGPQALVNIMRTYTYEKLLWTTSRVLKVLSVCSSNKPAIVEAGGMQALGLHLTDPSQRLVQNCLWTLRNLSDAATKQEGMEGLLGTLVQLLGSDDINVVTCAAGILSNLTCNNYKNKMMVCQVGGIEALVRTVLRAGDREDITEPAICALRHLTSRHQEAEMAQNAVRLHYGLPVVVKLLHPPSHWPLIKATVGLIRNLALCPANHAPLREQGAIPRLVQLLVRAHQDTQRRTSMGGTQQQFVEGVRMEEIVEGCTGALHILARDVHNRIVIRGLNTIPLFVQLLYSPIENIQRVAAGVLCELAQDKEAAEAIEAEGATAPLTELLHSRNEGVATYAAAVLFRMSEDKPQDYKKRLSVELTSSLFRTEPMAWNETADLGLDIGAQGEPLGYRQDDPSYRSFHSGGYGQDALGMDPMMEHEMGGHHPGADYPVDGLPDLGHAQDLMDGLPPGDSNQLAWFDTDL

[5] = biological target: Bcat-Halo (beta-catenin HaloTag construct expressed in HEK293 cells) (UniProt P35222); assay: NanoBRET IC50 in HEK293 cells; Bcat-Halo with TCF4-Luc as competitor
[6] = biological target: full-length beta-Catenin (Uniprot ID P35222) (Homo sapiens (Human)) (UniProt P35222); assay: fluorescence polarization competition; 10 nM full-length beta-catenin with 10 nM 5FAM-TCF4 (residues 10-53) probe as competitor
Target sequence in this assay (P35222 2-781 limits assumed): as above

[7] = biological target: full-length beta-Catenin (Uniprot ID P35222) (Homo sapiens (Human)) (UniProt P35222); assay: fluorescence polarization competition; displacement of 5FAM-TCF4(10-53) from full-length beta-catenin
Target sequence in this assay (P35222 whole entry, the tested form may be a part, one chain of several): as the sequence (P35222 whole entry, the tested form may be a part, one chain of several) above

[8] = biological target: full-length beta-Catenin (Uniprot ID P35222) (Homo sapiens (Human)) (UniProt P35222); assay: fluorescence polarization competition; full-length beta-catenin, 5FAM-TCF4(10-53) probe
Target sequence in this assay (P35222 2-781 limits assumed): as the sequence (P35222 2-781 limits assumed) above

[9] = biological target: full-length beta-Catenin (Uniprot ID P35222) (Homo sapiens (Human)) (UniProt P35222); assay: fluorescence polarization competition, full-length beta-catenin with 5FAM-TCF4(10-53) probe
Target sequence in this assay (P35222 2-781 limits assumed): as above

[10] = biological target: full-length beta-Catenin (Uniprot ID P35222) (Homo sapiens (Human)) (UniProt P35222); assay: fluorescence polarization competition; 10 nM full-length beta-catenin with 10 nM 5FAM-TCF4(10-53) probe
Target sequence in this assay (P35222 2-781 limits assumed): as above

[11] = biological target: full-length beta-Catenin (Uniprot ID P35222) (Homo sapiens (Human)) (UniProt P35222); assay: competition fluorescence polarization; full-length beta-catenin, 5FAM-TCF4(10-53) probe as competitor
Target sequence in this assay (P35222 whole entry, the tested form may be a part, one chain of several): as the sequence (P35222 whole entry, the tested form may be a part, one chain of several) above

Bcat-Halo [12] = biological target: Bcat-Halo (UniProt P35222); assay: NanoBRET Abs IC50 in HEK293 cells; Bcat-Halo, TCF4-Luc as competitor
[13] = biological target: full-length beta-Catenin (Uniprot ID P35222) (Homo sapiens (Human)) (UniProt P35222); assay: FP competition vs 5FAM-TCF4(10-53), full-length beta-catenin
Target sequence in this assay (P35222 2-781 limits assumed): as the sequence (P35222 2-781 limits assumed) above

Bcat-Halo [14] = biological target: Bcat-Halo (UniProt P35222); assay: NanoBRET Abs IC50, HEK293 cells, B-cat-Halo/TCF4-Luc; competitor TCF4-Luc
Bcat-Halo [15] = biological target: Bcat-Halo (UniProt P35222); assay: NanoBRET in HEK293 cells, Bcat-Halo/TCF4-Luc (competitor TCF4-Luc); absolute IC50
[16] = biological target: full-length beta-Catenin (Uniprot ID P35222) (Homo sapiens (Human)) (UniProt P35222); assay: fluorescence polarization competition; full-length beta-catenin with 5FAM-TCF4(10-53) probe as competitor
Target sequence in this assay (P35222 whole entry, the tested form may be a part, one chain of several): as the sequence (P35222 whole entry, the tested form may be a part, one chain of several) above

[17] = biological target: B-cat-Halo (beta-catenin HaloTag NanoBRET construct expressed in HEK293 cells) (UniProt P35222); assay: NanoBRET Abs IC50; HEK293 cells transfected with B-cat-Halo and TCF4-Luc (competitor: TCF4-Luc)
[18] = biological target: full-length beta-Catenin (Uniprot ID P35222) (Homo sapiens (Human)) (UniProt P35222); assay: fluorescence polarization competition; full-length beta-catenin with 5FAM-labeled TCF4 (10-53) probe as competitor
Target sequence in this assay (P35222 whole entry, the tested form may be a part, one chain of several): as above

[19] = biological target: full-length beta-Catenin (Uniprot ID P35222) (Homo sapiens (Human)) (UniProt P35222); assay: fluorescence polarization competition; full-length beta-catenin, competitor probe 5FAM-TCF4(10-53)
[20] = biological target: full-length beta-Catenin (Uniprot ID P35222) (Homo sapiens (Human)) (UniProt P35222); assay: FP competition vs 5FAM-TCF4(10-53) probe on full-length beta-catenin
Target sequence in this assay (P35222 whole entry, the tested form may be a part, one chain of several): as above

[21] = biological target: full-length beta-Catenin (Uniprot ID P35222) (Homo sapiens (Human)) (UniProt P35222); assay: AlphaScreen competition vs biotin-TCF4(10-53) on full-length beta-catenin
[22] = biological target: full-length beta-Catenin (Uniprot ID P35222) (Homo sapiens (Human)) (UniProt P35222); assay: fluorescence polarization competition, peptide titrated against full-length beta-catenin + 5FAM-TCF4(10-53)
[23] = biological target: full-length beta-Catenin (Uniprot ID P35222) (Homo sapiens (Human)) (UniProt P35222); assay: fluorescence polarization competition; 5FAM-TCF4 10-53 probe on full-length beta-catenin

Chain of Bcat-Halo (P35222 whole entry): as the sequence (P35222 whole entry, the tested form may be a part, one chain of several) above
Chain of Bcat-Halo (beta-catenin HaloTag construct expressed in HEK293 cells) (P35222 whole entry, the tested form may be a part): as the sequence (P35222 whole entry, the tested form may be a part, one chain of several) above
Chain of B-cat-Halo (beta-catenin HaloTag NanoBRET construct expressed in HEK293 cells) (P35222 whole entry): as the sequence (P35222 whole entry, the tested form may be a part, one chain of several) above

IC50 [1]: 325 nM
B1: I-1985 (peptide)
peptide: PD[tBuAla][B5]D[Phe(3-COOH)]AAFL[PyrS2][Phe(2-Cl)][Bta]Q-NH2
modifications: staple 4-11; staple (positions not given here); not fully specified (residue 1, N-terminus, bridges); printed as ProAm6-Asp-Npg-B5-Asp-3COOHF-Ala-Ala-Phe-Leu-PyrS2-2C1F-BztA-Gln-NH2

NanoBRET % inh @ 10 uM (Bcat-Halo [2]): 5.1% | EC50 [3]: 7 nM | IC50 [4]: 6 nM
Binder: Ac-[αAllylPro]D[tBuAla][B5(13)]DDAAFN[PyrS3][3Thi][Bta]H-NH2 (staple 1-4, 4-11) [I-775]

IC50 [1]: 320 nM
B2: I-1984 (peptide)
peptide: PD[tBuAla][B5]D[Phe(3-COOH)]AAFL[PyrS2][Phe(2-Cl)][Bta]Q-NH2
modifications: staple 4-11; staple (positions not given here); not fully specified (residue 1, N-terminus, bridges); printed as ProAm5-Asp-Npg-B5-Asp-3COOHF-Ala-Ala-Phe-Leu-PyrS2-2C1F-BztA-Gln-NH2

IC50 [5]: 10700 nM | EC50 [6]: 6 nM | IC50 [7]: 6 nM
Binder: Ac-[αAllylPro]D[tBuAla][B5(4)]DTAAFN[PyrS2][3Thi][Bta]Q-NH2 (staple 1-4, 4-11) [I-844]

IC50 [8]: 221 nM | EC50 [9]: 221 nM
Binder: Ac-[αAllylPro]D[tBuAla][B5(3)]D[TfeGA]AAFF[S8][Phe(2-Cl)][Bta]Q-NH2 (staple 1-4, 4-11) [I-931]

IC50 [10]: 130 nM
Binder: Ac-[αAllylPro]D[tBuAla][B5(3)]D[Phe(3-COOH)][Aib]AFL[Az2][3Thi][Bta]Q-NH2 (staple 1-4, 4-11) [I-2617]

IC50 [1]: 502 nM
B3: I-1986 (peptide)
peptide: PD[tBuAla][B5]D[TfeGA]AAFT[PyrS2][Phe(2-Cl)][Bta]Q-NH2
modifications: staple 4-11; staple (positions not given here); not fully specified (residue 1, N-terminus, bridges)

EC50 [3]: 36 nM | IC50 [11]: 36 nM | IC50 (Bcat-Halo [12]): > 20000 nM
Binder: Ac-[αAllylPro]D[Abu][B5]DDAAFN[S8]F[Bta]H-NH2 (staple 1-4, 4-11) [I-574]

EC50 [3]: 17.5 nM | IC50 [11]: 17.5 nM | IC50 (Bcat-Halo [12]): 15800 nM
Binder: Ac-[αAllylPro]D[tBuAla][B5(5)]DDAAFN[S8]F[Bta]H-NH2 (staple 1-4, 4-11) [I-582]

IC50 [5]: 29100 nM | IC50 [13]: 12 nM | EC50 [6]: 12 nM | IC50 (Bcat-Halo [14]): 40000 nM
Binder: Ac-[αAllylPro]D[tBuAla][B5(3)]DHAAFN[PyrS2″][3Thi][Bta]Q-NH2 (staple 1-4, 4-11) [I-864]

IC50 [10]: 36 nM
B4: I-2619 (peptide)
peptide: Ac-[αAllylPro]D[tBuAla][B5(4)]D[Phe(3-COOH)][Aib]AFL[Az3][3Thi][Bta]Q-NH2
modifications: staple 1-4, 4-11; not fully specified; printed as Ac-PL3-Asp-Npg-B5-Asp-3COOHF-Aib-Ala-Phe-Leu-Az3-3Thi-BztA-Gln-NH2

IC50 [5]: 50600 nM | IC50 [13]: 15 nM | EC50 [6]: 15 nM | IC50 (Bcat-Halo [14]): 30600 nM
Binder: Ac-[αAllylPro]D[tBuAla][B5(12)]DNAAFN[PyrS2][3Thi][Bta]-NH2 (staple 1-4, 4-11) [I-857]

IC50 [11]: 32 nM | IC50 (Bcat-Halo [12]): 15600 nM | EC50 [7]: 32 nM
Binder: Ac-[αAllylPro]D[Abu][B5(4)]DEAAFQ[S8]F[Bta]H-NH2 (staple 1-4, 4-11) [I-571]

EC50 [3]: 5 nM | IC50 (Bcat-Halo [15]): 13700 nM | IC50 [16]: 5 nM
Binder: Ac-[αAllylPro]D[tBuAla][B5(7)]D[TfeGA]AAFN[PyrS2][3Thi][Bta]H-NH2 (staple 1-4, 4-11) [I-770]

IC50 [17]: 11300 nM | EC50 [18]: 21 nM | IC50 [19]: 21 nM
Binder: Ac-[αAllylPro]D[tBuAla][B5(3)]D[TfeGA]AAF[hSer][S8][Phe(2-Cl)][Bta]Q-NH2 (staple 1-4, 4-11) [I-996]

EC50 [3]: 5 nM | IC50 (Bcat-Halo [15]): 13000 nM | IC50 [16]: 5 nM
Binder: Ac-[αAllylPro]D[tBuAla][B5(7)]D[TfeGA]AAFN[PyrS2][3Thi][Bta]H-NH2 (staple 1-4, 4-11) [I-769]

EC50 [20]: 140 nM | EC50 [21]: 41 nM
Binder: Ac-[αAllylPro]DA[B5(4)]D[TfeGA]AAFV[S8]F[Bta]Q-NH2 (staple 1-4, 4-11) [I-293]

IC50 [10]: 77 nM
B5: I-2618 (peptide)
peptide: Ac-[αAllylPro]D[tBuAla][B5(3)]D[Phe(3-COOH)][Aib]AFL[Az3][3Thi][Bta]Q-NH2
modifications: staple 1-4, 4-11; not fully specified; printed as Ac-PL3-Asp-Npg-B5-Asp-3COOHF-Aib-Ala-Phe-Leu-Az3-3Thi-BztA-Gln-NH2

IC50 [17]: 8800 nM | EC50 [18]: 41 nM | IC50 [19]: 41 nM
Binder: Ac-[αAllylPro]D[tBuAla][B5(3)]D[TfeGA]AAFF[PyrS2″][Phe(2-Cl)][Bta]S-NH2 (staple 1-4, 4-11) [I-990]

EC50 [22]: 10 nM | IC50 [23]: 10 nM
Binder: Ac-[αAllylPro]D[tBuAla][B5]DDAAFN[PyrS2″][3Thi][Bta][dT]-NH2 (staple 1-4, 4-11) [I-817]

IC50 [17]: 13900 nM | EC50 [18]: 5 nM | IC50 [19]: 5 nM
Binder: Ac-[αAllylPro]D[tBuAla][B5(3)]D[TfeGA]AAFF[PyrS2″]F[Bta]Q-NH2 (staple 1-4, 4-11) [I-988]
